T1: SKP1-8611 (Nannochloropsis Skp1 protein) (Nannochloropsis gaditana)
T1 construct: also called SKP-8611
T1 chain: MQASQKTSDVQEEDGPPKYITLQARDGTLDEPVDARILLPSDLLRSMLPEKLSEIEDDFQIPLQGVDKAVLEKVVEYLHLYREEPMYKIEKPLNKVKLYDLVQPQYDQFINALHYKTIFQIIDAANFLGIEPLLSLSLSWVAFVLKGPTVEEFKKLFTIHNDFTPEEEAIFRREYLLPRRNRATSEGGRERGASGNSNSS

T2: Skp1-7479 (Nannochloropsis Skp1 protein, genome locus Naga_100005 g56) (Nannochloropsis gaditana)
T2 construct: also called SKP-7479
T2 chain: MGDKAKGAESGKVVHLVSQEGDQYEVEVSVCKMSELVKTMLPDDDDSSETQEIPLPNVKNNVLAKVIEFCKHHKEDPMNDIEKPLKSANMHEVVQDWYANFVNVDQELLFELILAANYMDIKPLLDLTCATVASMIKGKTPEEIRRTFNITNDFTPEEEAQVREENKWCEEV

B1: SGT1 (suppressor of G2 allele of skp1), Nannochloropsis gaditana, genome locus Naga_100120 g12 (other)
chain: MEQAQLAFMDEDYATADELFSAYIATHPDDATALVSRAAVHLKLNQPSQALHDAEAAASLKSDFEVAWYRQGVAAFALEDFSRAKEAFMRGRALLGDRPEPQGRRYDVWLRKTTLELGEHDEQGMTVVAEGGRKELRQEEGAKGIEATVPRSQPSPTHPPSSAPAIPAGHVKFQFYQTTSYVTVTILYKGLREEDANVSVQPRHLKVSVGADGDVLFDRALFETVVPEESTSKIFATKIEVKLRKAMEGLTWPELCALSPGAAASVHTVSAPTPDSHATALPSLAQGPATAPSSKPLRPYASTKDWGAVEKEISKELESEKPEGDEALNTLFRDIYAKGSDETRRAMVKSFQTSGGTVLSTNWEEVGKKDYEKEEERKAPEGMEWRKWGV
notes: also called Nannochloropsis SGT1; gene 1852

Legend:
[1] = target: B1; assay: yeast two-hybrid screen, CRD1-117 bait against Nannochloropsis cDNA prey library; growth and blue color on selective media
Protocol: The prey library was screened for by mating of the library-containing (prey) strain with each individual bait strain (i.e., a strain expressing CRD1-117) according to the Matchmaker™ Gold Yeast Two-Hybrid System User Manual (Clontech). […] Based on these numbers, it is estimated that more than 10 million interactions were tested.
After subtraction of false positives from the other domain hits, one hit remained which was unique to this domain: the gene encoding SGT1 (SEQ ID NO:27) encoded at N. gaditana genome locus Naga_100120 g12; Genbank Accession AZIL01000354.1. This gene is commonly referred to as “suppressor of G2 allele of skp1” because it was discovered in a genetic suppressor screen aimed at suppressing skp1-4, a mutant with defects in yeast kinetochore function (Hieter et al. 1999 Nature 402:362-363). SGT1 is an essential component of the yeast kinetochore assembly pathway and has been associated to a number of different biological roles in different organisms. Furthermore, mammalian SGT1 is known to interact with an Hsp90 chaperone and melusin, the human homolog of CHORD-3266. Similarly, the Arabidopsis CHORD-3266 homolog, RAR1, is also known to bind Arabidopsis SGT1 (Takahashi et al. (2003) PNAS USA 100:11777-11782). […]

[2] = target: T1, SKP1-8611 (Nannochloropsis Skp1 protein); assay: direct yeast two-hybrid assay
Excerpt: (§1) In order to determine whether SGT1 (SEQ ID NO:27) and Skp1 were members of the same pathway, we tested whether Nannochloropsis SGT1 was capable of binding to Nannochloropsis Skp1 by Y2H. Two different Skp1 proteins were identified in Nannochloropsis, SKP1-8611 (polynucleotide SEQ ID NO:9 and polypeptide SEQ ID NO:28) and Skp1-7479 (SEQ ID NO:29 encoded at N. gaditana genome locus Naga_100005 g56, Genbank Accession AZIL01000936). Protein coding sequences were amplified using sequence specific primers for SGT1 (SEQ ID NO:30 and SEQ ID NO:31), SKP-8611 (SEQ ID NO:32 and SEQ ID NO:33), and SKP-7479 (SEQ ID NO:34 and SEQ ID NO:35) and cloned into the prey and bait vectors as described above.

[3] = target: T2, Skp1-7479 (Nannochloropsis Skp1 …); assay: direct yeast two-hybrid assay
Excerpt: as §1

Binder	binding result [1]	binding result [2]	binding result [3]
CRD1-117 (fragment of CHORD-3266 protein, amino acids 1-117) (other, Used as bait in the yeast two-hybrid screen, cloned into bait vector pGBKT7 (Clontech); also called CHORD domain fragment 1-117) MKLYVHYEEAGQDEKALTLKLTLPKSWAEQPLLQVLELFIESYNKKKTGLPPLDKDFVHMEKAGGVILPVGNIVSDMLSDRDDLYIRSGPGPARGKIAHLSSPPNAHASSESSTGLL	binds		
B1		binds	binds

From patent publication US20170067069A1 (SYNTHETIC GENOMICS, published 2017)
